# Assay results: publication PMC8915792 (Proceedings of the National Academy of Sciences of the …, 2022)
# Target: the molecule itself
# Experiment: fluorescence polarisation
protein,measurement,value
"HaloTag-ABS3 (human talin-1 C-terminal actin-binding domain, residues 2,293 to 2,541, as a HaloTag fusion protein) (domain or fragment) TEWVDPEDPTVIAENELLGAAAAIEAAAKKLEQLKPRAKPKEADESLNFEEQILEAAKSIAAATSALVKAASAAQRELVAQGKVGAIPANALDDGQWSQGLISAARMVAAATNNLCEAANAAVQGHASQEKLISSAKQVAASTAQLLVACKVKADQDSEAMKRLQAAGNAVKRASDNLVKAAQKAAAFEEQENETVVVKEKMVGGIAQIIAAQEEMLRKERELEEARKKLAQIRQQQYKFLPSELRDEH",Kd,1900 ± 200 nM
